Source: patent US8536117B2, “Oxidant resistant apolipoprotein A-1 and mimetic peptides” (The Cleveland Clinic Foundation, priority 2007, dated 2013)
Where a chain is given by its changes, count along the chain named. “Also recorded” adds a separate entry of the source.

B1: rh-ApoA1 3MV: rh-ApoA1 with the three internal methionines converted to valines (protein, UniProt P02647 25-267, looked up, variant M86V M112V M148V)
Apolipoprotein A-I: DEPPQSPWDRVKDLATVYVDVLKDSGRDYVSQFEGSALGKQLNLKLLDNWDSVTSTFSKLREQLGPVTQEFWDNLEKETEGLRQEVSKDLEEVKAKVQPYLDDFQKKWQEEVELYRQKVEPLRAELQEGARQKLHELQEKLSPLGEEVRDRARAHVDALRTHLAPYSDELRQRLAARLEALKENGGARLAEYHAKATEHLSTLSEKAKPALEDLRQGLLPVLESFKVSFLSALEEYTKKLNTQ
B2: rh-ApoA1 4WL: rh-ApoA1 with each of the four tryptophan residues altered to leucine (protein, UniProt P02647 25-267, looked up, variant W8L W50L W72L W108L)
Apolipoprotein A-I: B1 Apolipoprotein A-I with W8L, W50L, W72L, V86M, W108L, V112M, V148M
B3: rh-ApoA1 4WF: rh-ApoA1 with each of the four tryptophan residues altered to phenylalanine (protein, UniProt P02647 25-267, looked up, variant W8F W50F W72F W108F)
Apolipoprotein A-I: B1 Apolipoprotein A-I with W8F, W50F, W72F, V86M, W108F, V112M, V148M

Columns and labels:
[1] = system: RAW 264.7 murine macrophage cells; experiment: ABCA1-dependent cholesterol efflux assay; type: cell-based; conditions: unoxidised protein/peptide, 4 hr incubation with [3H]cholesterol labeled RAW264.7 cells pretreated with 0.3 mM 8Br-cAMP
Procedure: ApoA1 (filled circles, solid line) and reductively methylated ApoA1 (open circles, dashed line) were subjected to modification by MPO at varying H2O2:ApoA1 mole ratios. These proteins were then assayed for ABCA1 dependent cellular cholesterol acceptor activity during a 4 hr incubation at 5 μg/ml with cholesterol labeled RAW264.7 cells, which had been treated with 0.3 mM 8Br-cAMP to induce ABCA1. Data are means±S.D. of triplicate determinations, when no bars appear, the S.D. is within the symbol.
(§1) RAW 264.7 murine macrophage cells were labeled with [3H] cholesterol and treated with 0.3 mmol/L 8Br-cAMP to induce ABCA1 activity, as previously described. The cells were washed and chased for 4 hours in serum-free medium in the presence of 0.3 mmol/L 8Br-cAMP and the presence or absence of various ApoA1 preparations. The radioactivity in the chase media was determined after brief centrifugation to pellet debris. Radioactivity in the cells was determined by extraction in hexane:isopropanol (3:2) with the solvent evaporated in a scintillation vial prior to counting. The percent cholesterol efflux was calculated as 100×(medium dpm)/(medium dpm+cell dpm).

[2] = system: RAW 264.7 murine macrophage cells; experiment: MPO/H2O2/Cl- modification of ApoA1, then ABCA1-dependent cholesterol efflux assay; type: cell-based; conditions: for ABCA1-dependent cholesterol acceptor activity after MPO modification: MPO/H2O2/Cl- system at varying (increasing) H2O2:ApoA1 mole ratios; for MPO mediated loss of cholesterol acceptor activity, high dose: H2O2:apoAI = 15:1, 3MV with or without the N-terminal methionine; for loss of cholesterol acceptor activity: MPO modification at H2O2:ApoA1 ratio of 1.4
Procedure: (§2) MPO at a final concentration of 57 nmol/L, prepared as previously described, was added to ApoA1 at 100 μg/mL (3.5 μmol/L) that had been extensively dialyzed against MPO reaction buffer. The reaction was initiated by adding hydrogen peroxide at varying mole ratios to ApoA1 in 4 aliquots at 15-minute intervals at 37° C., and continuing the incubation for 90 minutes, at which time 2 mmol/L L-methionine was added to quench the reaction. For chemical modification of ApoA1, sodium hypochlorite (NaOCI) was added to 100 μg/mL ApoA1 in MPO buffer at varying concentrations in 4 aliquots at 15 minutes intervals at 37° C. After a total incubation time of 60 minutes, 2 mmol/L L-metbionine was added to quench the reaction.
as §1

[3] = system: human low density lipoprotein; experiment: Lipid binding activity assay: inhibition of phospholipase C (PLC)-mediated aggregation of LDL; type: biochemical; conditions: for lipid binding activity after MPO modification: PLC mediated LDL aggregation assay, MPO at varying H2O2:ApoA1 mole ratios
Procedure: as §2
Lipid binding activity of ApoA1 was assessed via the inhibition of phospholipase C (PLC)-mediated aggregation of human low density lipoprotein, performed as previously described. We have previously shown that this assay give results similar to those observed by the DMPC dispersion clearance assay, but it is more sensitive and requires less ApoA1. The final concentration of apoA1 used in this assay as 12.5 μg/mL. which was sufficient to decrease the initial rate LDL aggregation by ≈75%.

[4] = Alpha helix content by CD (K2d algorithm); type: physicochemical; conditions: for loss of alpha helix content after MPO modification: MPO/H2O2 dose dependent; for alpha helix content: K2d algorithm, unmodified protein
From the text: We examined the role of ApoA1 tryptophan residues next by altering each of the four tryptophan residues to either leucine (rh-ApoA1 4WL) or phenylalanine (rh-ApoA1 4WF). […] Thus, the loss of efflux and lipid binding activity of the 4WL variant cannot be attributed to loss of helical content.

[5] = system: RAW 264.7 murine macrophage cells; experiment: HOCl (sodium hypochlorite) modification of ApoA1, then ABCA1-dependent cholesterol efflux assay; type: cell-based; conditions: increasing doses of HOCl (varying HOCl:ApoA1 mole ratios)
Procedure: as §2, §1

[6] = DMPC emulsion clearance assay (lipid binding); type: biochemical; conditions: 25 μg protein, 125 μg DMPC, absorbance at 325 nm, 24° C.
Procedure: FIGS. 7 (A-B) illustrate plots showing that rh-ApoA1 4WF binds lipid as well as rh-ApoA1 and its lipid binding activity is resistant to MPO mediated oxidation. A. Dimyristoyl phosphatidylcholine (DMPC) emulsions (125 μg) were prepared and incubated without addition (solid thick line) or with the addition of 25 μg rh-ApoA1 (solid thin line) or rh-ApoA1 4WF (dotted line). Lipid binding and solubilization was monitored by loss of turbidity by reading absorbance at 325 nm over time at 24° C. […] B. rh-ApoA1 (filled circles, solid line) and rh-ApoA1 4WF (open circles, dashed line) were subjected to modification by MPO at varying H2O2:ApoA1 mole ratios. These proteins were then assayed for lipid binding activity by prevention of phospholipase C dependent LDL aggregation. Data are normalized to the lipid binding activity of rh-ApoA1 treated in the absence of H2O2. Data are means±S.D. of triplicate determinations. *, p<0.05; and **, p<0.001 vs. rh-ApoA1 4WF at the same H2O2: ApoA1 mole ratio, respectively, by two tailed t-test.

Molecule	ABCA1-dependent cholesterol acceptor activity [1]	ABCA1-dependent cholesterol acceptor activity after MPO modification [2]	decrease of the initial rate of LDL aggregation ([3]; apoA1 final concentration 12.5 μg/mL)	loss of alpha helix content after MPO modification [4]	MPO mediated loss of cholesterol acceptor activity, high dose [2]	loss of cholesterol acceptor activity [2]	cholesterol acceptor (efflux) activity after HOCl treatment [5]	lipid binding activity (DMPC clearance) [6]	lipid binding activity after MPO modification [3]	alpha helix content [4]	ABCA1-dependent cholesterol acceptor activity ([1]; listed as 4WL variant)	ABCA1-dependent cholesterol acceptor activity ([1]; listed as 4WF variant)	lipid binding activity (DMPC clearance) ([6]; listed as 4WF variant)
ApoA1: human plasma-derived ApoA1	robust and equivalent	declined in a similar fashion	≈ 75%	similarly susceptible	–	–	–	–	–	–	–	–	–
methylated ApoA1: ApoA1 subjected to reductive methylation, leading to 92% lysine modification	robust and equivalent	declined in a similar fashion	–	similarly susceptible	–	–	–	–	–	–	–	–	–
rh-ApoA1: recombinant human ApoA1, with an additional methionine initiation codon and a 6-his tag at the N-terminus	yielded ABCA1 dependent cholesterol acceptor activity	inhibited by increasing MPO induced oxidation	–	susceptible to loss of alpha helical content	equally susceptible	negligible loss	impaired by increasing doses of HOCl	equivalent activity	diminished lipid binding activity	57%	–	–	–
B1	–	more sensitive to loss of cholesterol acceptor activity at low molar ratios	–	–	equally susceptible	lost about half of its cholesterol acceptor activity	–	–	–	–	–	–	–
B2	–	–	–	–	–	–	–	–	–	79%	lost the majority of this activity	–	–
B3	–	maintained this activity even at an H2O2:ApoA1 ratio of 15	–	susceptible to loss of alpha helical content	–	–	resistant to this treatment	–	resistant to MPO mediated inhibition; also recorded: did not loose its lipid binding activity	77%	–	largely retained this activity	equivalent activity
